PMC9351521 (Proceedings of the National Academy of Sciences of the …, 2022)

Assays:
Details in all cases: both partners purified
[1] = target: T1, SARS-CoV-2 spike receptor binding domain, His-tagged (T332-K529 with Pro-527 omitted) (SARS-CoV-2, wild-type RBD (P0DTC2 …)); assay: ITC; […]; iTC200, 25 °C, PBS; […]
T1 construct: also called RBD

[2] = target: T2, His-tagged SARS-CoV-2 RBD T332-K529 with Pro-527 omitted (SARS-CoV-2, wild-type RBD (P0DTC2 …)); assay: ITC
T2 construct: also called isolated RBD

[3] = target: T3, SARS-CoV-2 spike glycoprotein ectodomain (amino acids 1 to 1,208, RRAR > GSAS, KV > PP, T4 fibritin … (SARS-CoV-2, P0DTC2 sequence with GSAS …, RRAR > GSAS at residues 682 to 685 | KV > PP at residues 986 to 987)); assay: ITC
T3 construct: also called Spike protein; trimeric spike protein

biotinylated RBD = biotinylated RBD (SARS-CoV-2, wild-type RBD (P0DTC2 …)); assay: SPR; Biacore T200, PBS pH 7.4 with 0.005% P20, 25 °C; […]; 1:1 binding model
[4] = target: T1, SARS-CoV-2 spike receptor binding …; assay: ITC; […]; iTC200, 25 °C, PBS; […]; remark: listed apart in the source
[5] = target: T4, SARS-CoV-2 spike glycoprotein ectodomain (amino acids 1 to 1,208, GSAS, PP, T4 fibritin trimerization domain) (SARS-CoV-2, P0DTC2 sequence with GSAS …, RRAR > GSAS at residues 682 to 685 | KV > PP at residues 986 to 987); assay: ITC; […]; iTC200, 25 °C, PBS; […]
T4 construct: also called trimeric spike protein

[6] = target: biotinylated RBD (wild type) (SARS-CoV-2, wild-type RBD (P0DTC2 …)); assay: SPR; […]; Biacore T200, PBS pH 7.4 with 0.005% P20, 25 °C
[7] = target: T2, His-tagged SARS-CoV-2 RBD T332-K529 …; assay: crystal structure

B1: H11-A10 (VHH)
VHH: QVQLVESGGGLMQAGGSLRLSCAVSGRTFSTAAMGWFRQAPGKEREFVAAIRWSGGSAYYADSVKGRFTISRDKAKNTVYLQMNSLKYEDTAVYYCAGFSATRSLLSDYATWPYDYWGQGTQVTVSS
[1]
  stoichiometry N: 1

B2: H11 V101Y R103S (VHH)
VHH: QVQLVESGGGLMQAGGSLRLSCAVSGRTFSTAAMGWFRQAPGKEREFVAAIRWSGGSAYYADSVKGRFTISRDKAKNTVYLQMNSLKYEDTAVYYCAQTRYTSSLLSDYATWPYDYWGQGTQVTVSS
[1]
  stoichiometry N: 1

B3: H11-B5 (VHH)
VHH: QVQLVESGGGLMQAGGSLRLSCAVSGRTFSTAAMGWFRQAPGKEREFVAAIRWSGGSAYYADSVKGRFTISRDKAKNTVYLQMNSLKYEDTAVYYCASYQATRSLLSDYATWPYDYWGQGTQVTVSS
[1]
  stoichiometry N: 1

B4: nanobody H11-H4 Q98R H100E (D4 hybrid) (VHH)
VHH: QVQLVESGGGLMQAGGSLRLSCAVSGRTFSTAAMGWFRQAPGKEREFVAAIRWSGGSAYYADSVKGRFTISRDKAKNTVYLQMNSLKYEDTAVYYCARTEYVSYLLSDYATWPYDYWGQGTQVTVSS
notes: also called H4-D4 hybrid; hybrid nanobody
[2]
  Kd: 18 ± 1 nM
  dH: -16.5 kcal/mol
[3]
  Kd: 21 ± 3 nM
  dH: -14.8 kcal/mol
Biotinylated RBD
  t1/2: 29 s

B5: nanobody H11-H4 Y104S (VHH)
VHH: QVQLVESGGGLMQAGGSLRLSCAVSGRTFSTAAMGWFRQAPGKEREFVAAIRWSGGSAYYADSVKGRFTISRDKAKNTVYLQMNSLKYEDTAVYYCAQTHYVSSLLSDYATWPYDYWGQGTQVTVSS
[2]
  Kd: 409 ± 91 nM
  dH: -11 kcal/mol

B6: nanobody H11-H6 (VHH)
VHH: QVQLVESGGGLMQAGGSLRLSCAVSGRTFSTAAMGWFRQAPGKEREFVAAIRWSGGSAYYADSVKGRFTISRDKAKNTVYLQMNSLKYEDTAVYYCAGSKITRSLLSDYATWPYDYWGQGTQVTVSS
[2]
  Kd: 57 ± 4.5 nM
  dH: -19.1 kcal/mol

B7: H11-H4 Q98R H100E (D4 hybrid) (VHH)
VHH: QVQLVESGGGLMQAGGSLRLSCAVSGRTFSTAAMGWFRQAPGKEREFVAAIRWSGGSAYYADSVKGRFTISRDKAKNTVYLQMNSLKYEDTAVYYCARTEYVSYLLSDYATWPYDYWGQGTQVTVSS
[4]
  stoichiometry N: 1
[5]
  stoichiometry N: 1

B8: H11-H4 Y104S (VHH)
VHH: QVQLVESGGGLMQAGGSLRLSCAVSGRTFSTAAMGWFRQAPGKEREFVAAIRWSGGSAYYADSVKGRFTISRDKAKNTVYLQMNSLKYEDTAVYYCAQTHYVSSLLSDYATWPYDYWGQGTQVTVSS
[1]
  stoichiometry N: 1

B9: H11-H4 R52K (VHH)
VHH: QVQLVESGGGLMQAGGSLRLSCAVSGRTFSTAAMGWFRQAPGKEREFVAAIKWSGGSAYYADSVKGRFTISRDKAKNTVYLQMNSLKYEDTAVYYCAQTHYVSYLLSDYATWPYDYWGQGTQVTVSS
[6]
  binding result: no binding (tested: 1 µM)

B10: nanobody H11-A10 (VHH)
VHH: QVQLVESGGGLMQAGGSLRLSCAVSGRTFSTAAMGWFRQAPGKEREFVAAIRWSGGSAYYADSVKGRFTISRDKAKNTVYLQMNSLKYEDTAVYYCAGFSATRSLLSDYATWPYDYWGQGTQVTVSS
[2]
  Kd: 60 ± 4.6 nM
  dH: -19.8 kcal/mol

B11: H11-H4 R52A (VHH)
VHH: QVQLVESGGGLMQAGGSLRLSCAVSGRTFSTAAMGWFRQAPGKEREFVAAIAWSGGSAYYADSVKGRFTISRDKAKNTVYLQMNSLKYEDTAVYYCAQTHYVSYLLSDYATWPYDYWGQGTQVTVSS
[6]
  binding result: no binding (tested: 1 µM)

B12: H11-H6 (VHH)
VHH: QVQLVESGGGLMQAGGSLRLSCAVSGRTFSTAAMGWFRQAPGKEREFVAAIRWSGGSAYYADSVKGRFTISRDKAKNTVYLQMNSLKYEDTAVYYCAGSKITRSLLSDYATWPYDYWGQGTQVTVSS
[4]
  stoichiometry N: 1

B13: nanobody H11 V101Y R103S (VHH)
VHH: QVQLVESGGGLMQAGGSLRLSCAVSGRTFSTAAMGWFRQAPGKEREFVAAIRWSGGSAYYADSVKGRFTISRDKAKNTVYLQMNSLKYEDTAVYYCAQTRYTSSLLSDYATWPYDYWGQGTQVTVSS
notes: also called double mutant A101Y, R103S
[2]
  Kd: 5220 nM
  dH: -11 kcal/mol

B14: nanobody H11-B5 (VHH)
VHH: QVQLVESGGGLMQAGGSLRLSCAVSGRTFSTAAMGWFRQAPGKEREFVAAIRWSGGSAYYADSVKGRFTISRDKAKNTVYLQMNSLKYEDTAVYYCASYQATRSLLSDYATWPYDYWGQGTQVTVSS
[2]
  Kd: 53 ± 5.3 nM
  dH: -16.3 kcal/mol

B15: nanobody H11 (VHH)
VHH: QVQLVESGGGLMQAGGSLRLSCAVSGRTFSTAAMGWFRQAPGKEREFVAAIRWSGGSAYYADSVKGRFTISRDKAKNTVYLQMNSLKYEDTAVYYCAQTRVTRSLLSDYATWPYDYWGQGTQVTVSS
notes: also called parent H11; parent nanobody
[7]
  binding result: binds

B16: H11-H4 R52E (VHH)
VHH: QVQLVESGGGLMQAGGSLRLSCAVSGRTFSTAAMGWFRQAPGKEREFVAAIEWSGGSAYYADSVKGRFTISRDKAKNTVYLQMNSLKYEDTAVYYCAQTHYVSYLLSDYATWPYDYWGQGTQVTVSS
[6]
  binding result: no binding (tested: 1 µM)

B17: nanobody F2 (VHH)
VHH: QVQLVESGGGLVQAGGSLRLACIASGRTFHSYVMAWFRQAPGKEREFVAAISWSSTPTYYGESVKGRFTISRDNAKNTVYLQMNRLKPEDTAVYFCAADRGESYYYTRPTEYEFWGQGTQVTVSS
[7]
  binding result: binds
